# Laboratory results taken from the nanobody polyreactivity screen of Harvey et al. (2022).
# Experiment: yeast display, Sf9 membrane polyspecificity reagent, FACS + sequencing; frameworks hold sequencing errors
# Procedure, shortened: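 Sorting gates, low and high (top ~1%), were placed on anti-HA fluorescence to track expression and on streptavidin fluorescence to track reagent binding. A clone's polyreactivity label is taken from the gate it came out of. The reagent was 10% biotinylated, detergent-solubilized Sf9 membrane, applied for 1 hour at 4 °C to galactose-induced yeast display cells.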
row,Sequence,polyreactivity (PSR sort gate)
1,QVQLVESGGGLGQAGGSLRISCAASGRTFGIYAMGCYRQAPGKLRELVATISWRGGSTYYADSVKGRFTISRDNAKNTVYLQMNSLTPEDTAVYYCAAGPGYLILISDIYGYWGQGTQVTVSS,low polyreactivity
2,QVQLVESGGGLVQAGGSLRLSCAASGFIFAAYAMGWYRQAPGKERELVAAINRSGSSTYYADSVKGRFTISRDNAKNTVYLQMNSLKPEDTAVYYCAARVVHQSRYSYEYWGQGTQVTVSS,high polyreactivity
3,QVQLVESGGGLVQAGGSLRLSCAASGRTFKQYAMGWYSQAPGKERELVAAISRTGGRTYYADSVKGRFTISRDNAKNTVYLQMNSLKPEDTAVYFCNAVYYWYKGDYWGQGTQVTVSS,high polyreactivity
4,QVQLVESGGGLVQAVGSLRLSCAASGITFNLYAMGWYRQAPGKEREFVAGITASGSSTYDADSVKGRFTISRDNAKNTVYLQMNSLKPEDTAVYYCAARWHIYYFSYVTSYAYGYWGQGTQVTVSS,high polyreactivity
5,QVQHVESGGGLVQAGGSLRLSCAASGSIFRYYAMGWYRQAPGKERELVAASTSGGSTSYADSVKGRFTISRDNAKNTVYLQMNSLKPEDTAVYYCAKRSRHNKYYYWGQGTQVTVSS,high polyreactivity
6,QVQLVESGGGLVQAGGSLRLSCAASGRTFSYNVMGWYRQAPGKERELVASTYYADSVKGRFTISRDIAKNTVYLQMNSVKPEDTAVYYCNRDKPGLFFTSYNYSSSYDYWGQGTLVTVSS,low polyreactivity
7,QVQLVESGGGLVQAGGSLRLSCAASGSIFHGYAMGWYRQAPGKERELVAAISKSGGRTYYADSVKGRFTISRDNAKNTVYLQMNSLKPEDTAVYYCAAPATYKYDYWGQGTQVTVSS,high polyreactivity
8,QVQLVESGGGLVQSGGSLRLSCAASGYIFRFNAMGWYRQAPGKEREMVAVITSGARTYYADSVKGRFTISRDNAKNTVYLQMNSLKPEDTAVYYCNAGARRYLYDYWGHGTQVTVSS,low polyreactivity
9,QVQLVESGGGLVQAGGSLRLSCAASGFIFHNYAMGWYRQAPGKESELVAVITLRGGSTYYADSVKGRCTISRDNAKNTVYLQMNSLKPEDTAVYYCATGNSKGRRTVRYGYWGQGTQVTVSS,high polyreactivity
10,QVQLVESGGGLVQAGGSLRLSCAASGSIFPYYTMGWYRQAPGKERELVAAISGSGTSTYYADSVKGRFTISRDNAKNTVYLQMNSLKPEDTAVYYCAKRFRYGYVNYYYWGQGTQVTVSS,low polyreactivity
11,QVQLVESGGGLVQAGGSLRLSCAASGRIFGDNDMGWSRQAPGKDRELVAGIRWRADRTYYADSVKGRFTISRDNAKNTVYLQMNSLKPEDTAVYYCNVGSFTGHSYGFGYWGQGTQVTVSS,low polyreactivity
12,QVQLVESGVGLVQAGGSLRLSCAASGRSFGPYAMGWYSQAPGKERELVAAISSSGGSTYYADSVKGRFTISRDNAKNNVYLQMNSLKPEDTAVYYCATYFARGYNSWGQGTQVTVSS,high polyreactivity
13,QVQLVESGGGLVQAGGSLRLSCAASGRIFVYYAMGWYRQAPGKERELVATITSSDITNDADSVKGRFTISCDNAKNTVYLQMNSLKPEDTAVYYCARDYYVYSSGHVPLDYWGQGTQVTVSS,low polyreactivity
14,QVQLVESGGGLVQAGGSLRLSCAASGSTSVVNAMGWSRQAPGKERELVAVITISAVSTYYADSVKGRFTISRDNAKNTVYLQMNSLKPEDTAVYYCAARSYVIYDNFEYDYWGQGTQVTVSS,high polyreactivity
15,QVQLVESGGGLVQAGGSLRLSCAASGFTFDSNAMGRYRQAPGKERELVAANSTGGSTYYADSVKGRFTISRDNAKNTVYLQMNSLKPEDTAVYYCARDPPYPDTWYGYWGQGTQVTVSS,low polyreactivity
16,QVQLVESGGGLVQAGGSLRLSCAASGSIYEYYVMGWYRHAPGKERELVAAISYSGDSTYYADSVKGRFTISRDNAKNTVYFQMNSLKPEDTAVYYCAAQYSRVIPPGYDYWGQGSQVTVSS,high polyreactivity

row,Sequence,polyreactivity (PSR sort gate)
1,QVQLVESGGGLVQAGGSLRLSCAPSGRIFYTKAMGWYRPAPGKERELVATIRISGGNTYYADSVKGRFTISRDNAKNTVYLQMNSLKPEDTAVYYCAARARPRYYRPPYDYWGQGTQVTVSS,high polyreactivity
2,QVQLVESGGGLVQAGGSLRLSCAASGFIFVLYAMGWYRQAPGKERELVAAITWSTGSTYYADSVKGRFTISRDNAKNTVYLQMNSLKPEDTAVYYCAADQYIFGIWFDYWGQGTQVTVSS,high polyreactivity
3,QVQLVESGGGLVQAGGSLRLSCAASGSTFDNNAMGWYRQAPGKERELVAAISWGGGSTYYADSVKGRFTISRDNAKNTVYLQMNSLKPEDTAVYYCAKLKGTQPNRYDYWGQGTQVTVSS,low polyreactivity
4,QVQLVESVGGLVQAGGSLRLSCAASGGTFGYNAMGWYRQAPGKERELVAAIRVNGGSTYYADSVKGRFTISRDNAKNTVYLQMNSLKPEDTAVYYCAAESRVYRTSYWYGYWGQGTQVTVSS,high polyreactivity
5,QVQLVESGGGLVQAGGSLRLSCAASGFIFSRNTMGWYRQAPGKERELVAAISRGGGSTYYADSVKGRFTISRDNAKNTVYLQMNSLKPEDTAVYYCNTRIVAAGRYDYWGQGTQVTVSS,high polyreactivity
6,QVQLVESGGGLVQAGGSLRLSCAASGSTFLGYAMGWSRQAPGKERELVAAISWSGGSTYYADSVKGRFTISRDNAKNTVYLQMNRLKPEDTAVYYCNAVGYLDFEWGQGTQVTVSS,low polyreactivity
7,QVQLVESGGGLVQAGGSLRLSCAASGSIYRYYPMGWYRQAPGKEREFVAAITYSDSDTYYADSVKGRFTISRDNAKNTVYLQMNRLKPEDTAVYYCAARFRRTRVTYYYWGQGTQVTVSS,high polyreactivity
8,QVQLVESGGGLVQAGGSLRLSCAASGSTFYDYVMGWYRQAPGKERELVAAISRTGASTYYADSVKGRFTISRDNAKNTVYLQMNSLKPEDTAVYYCAADSDTVRYYYWGQGTQVTVSS,high polyreactivity
9,QVQLVESGGGRVQAGGSLRLSCAASGSIFTTYTMGWDRQAPGKESEWVAAITSSSGSTYYADSVKGRFTISRDNAKNTVYLQMNSLKPEDTAVYYCAARGYFDFSRYDSWGHGTQVTVSS,low polyreactivity
10,QVQLVESGGGLVQAGGSLRLSCAASGRIFHGYAMGWYRQAPGKERELVAVIRSGVNTNYADSVKGRFTISRDNAKNTVYLQMNSLKPEDTAVYYCAVDYTPEDWGDDYWGQGTQVTVSS,low polyreactivity
11,QVQLVESWGGLVQAGGSLRLSCAASGSTLGNNGMGWYRQAPGKERELVAAIDSTVTTNYADSVKGRFTISRDNAKKSVYLHMNSLKPEDTAVYYCAADYWGQGTQVTVSS,low polyreactivity
12,QGHLEESGGGLVQAGGSLRISCAASGRILPYYVMGGYRPAPGKERELVATIYWSGGSTYYADSVKGRFTISRDNAKNNVNLQINSLKPEDTAVYYSNAAPSDDYDYWGQGTQVTVSS,low polyreactivity
13,QVQLVESGGGLVQAGGSLRLSCAASGRTFLVYAMGWYRQAPGKERELVADITGRGGITYYADSVKGRFTISRDNAKNTVYLQMNSLKPEDTAVYYCAAERYNSKTIYRYDYWGQGTQVTVSS,high polyreactivity
14,HVQLVESGGGLVQAGGSLRLSCAASGFTFNYNALGGYRQAPGKERELVAAIRRSGGSTYYADSVKGRFTISRDNAKNTVYLQMNSLKPEDTAVYYGAARQSFLYGDWGQGTQVTVSS,high polyreactivity
15,QVQLVESGGGLVQAGGSLRFSCAASGSIFSWYAMGGYRQAPGKERELVAAITWTGGSTYYADSVKGRFTISRDNAKNTVYLQMNSLKPEETAVYYCAARRVVYRKYGDRARWYNYWGHGTQVTVSS,high polyreactivity
16,QVQLVESGGGLVQAGGSLRLSCAATGNIFRYNAMGWYRQAPGKERELFAAISSVGTTNYADSVKGRFTISRDNEKNTVYLQMNSLKPEDTAVYYVAAVAYQGGYLNDNWGQGTQVTLSS,low polyreactivity
